Experimental findings from US20180371492A1 (WAYNE STATE UNIVERSITY, published 2018) are described below.

The assay concerns the target T1, purified androgen receptor (AR) (human, UniProt P10275 1-920, limits assumed).
T1 construct: also called purified AR
T1 sequence: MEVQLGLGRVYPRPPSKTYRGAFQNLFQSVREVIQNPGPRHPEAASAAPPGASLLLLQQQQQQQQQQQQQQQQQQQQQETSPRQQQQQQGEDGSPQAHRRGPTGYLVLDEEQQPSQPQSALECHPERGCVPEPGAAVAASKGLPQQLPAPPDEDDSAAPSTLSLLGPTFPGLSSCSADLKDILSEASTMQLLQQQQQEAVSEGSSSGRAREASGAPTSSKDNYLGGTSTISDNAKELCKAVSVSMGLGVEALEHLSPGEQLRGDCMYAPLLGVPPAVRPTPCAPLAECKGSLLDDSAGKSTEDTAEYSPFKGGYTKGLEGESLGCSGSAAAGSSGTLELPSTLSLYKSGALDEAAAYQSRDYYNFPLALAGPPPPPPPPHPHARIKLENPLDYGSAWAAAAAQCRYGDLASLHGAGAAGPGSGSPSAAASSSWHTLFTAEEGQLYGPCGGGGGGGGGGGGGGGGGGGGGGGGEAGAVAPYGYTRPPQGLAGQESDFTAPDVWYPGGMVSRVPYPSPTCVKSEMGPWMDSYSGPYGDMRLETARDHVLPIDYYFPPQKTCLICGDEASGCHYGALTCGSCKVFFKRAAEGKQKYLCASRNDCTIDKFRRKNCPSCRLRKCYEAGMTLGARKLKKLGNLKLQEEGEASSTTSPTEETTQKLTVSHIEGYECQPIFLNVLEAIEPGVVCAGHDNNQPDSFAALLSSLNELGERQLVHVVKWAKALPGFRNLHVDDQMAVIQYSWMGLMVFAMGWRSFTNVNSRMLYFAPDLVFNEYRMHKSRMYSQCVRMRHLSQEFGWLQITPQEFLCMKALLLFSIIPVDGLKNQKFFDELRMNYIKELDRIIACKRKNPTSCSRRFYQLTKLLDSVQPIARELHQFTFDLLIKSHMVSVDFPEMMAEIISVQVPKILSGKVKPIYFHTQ
The assay can be described thus: SPR, purified proteins. For orientation: In SPR one partner is held on a chip, and binding of the other changes the refractive index at the surface.

B1: ELK1 (ETS transcription factor (ELK1), transcript variant 1) (other)
chain: MDPSVTLWQFLLQLLREQGNGHIISWTSRDGGEFKLVDAEEVARLWGLRKNKTNMNYDKLSRALRYYYDKNIIRKVSGQKFVYKFVSYPEVAGCSTEDCPPQPEVSVTSTMPNVAPAAIHAAPGDTVSGKPGTPKGAGMAGPGGLARSSRNEYMRSGLYSTFTIQSLQPQPPPHPRPAVVLPNAAPAGAAAPPSGSRSTSPSPLEACLEAEEAGLPLQVILTPPEAPNLKSEELNVEPGLGRALPPEVKVEGPKEELEVAGERGFVPETTKAEPEVPPQEGVPARLPAVVMDTAGQAGGHAASSPEISQPQKGRKPRDLELPLSPSLLGGPGPERTPGSGSGSGLQAPGPALTPSLLPTHTLTPVLLTPSSLPPSIHFWSTLSPIAPRSPAKLSFQFPSSGSAQVHIPSISVDGLSTPVVLSPGPQKP
notes: also called purified ELK1; ELK1 polypeptide
B1 yielded a dissociation constant (Kd) of 19 nM.

Broadly, the Kd is the equilibrium constant for the complex coming apart.
